Assay results published in the nanobody polyreactivity screen of Harvey et al. (2022).

Experiment: yeast display, Sf9 membrane polyspecificity reagent, FACS + sequencing; frameworks hold sequencing errors
In short: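 Sorting gates, low and high (top ~1%), were placed on anti-HA fluorescence to track expression and on streptavidin fluorescence to track reagent binding. A clone's polyreactivity label is taken from the gate it came out of. The reagent was 10% biotinylated, detergent-solubilized Sf9 membrane, applied for 1 hour at 4 °C to galactose-induced yeast display cells.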

| Sequence | polyreactivity (PSR sort gate) |
| --- | --- |
| QVQLVESGGGLVQAGGSLRLSCAASGSTFSGYAMGWYRQAPGKERELVGAISSSGGRTNYADSVKGRFTISRDNAKNTVYLQMNSLKPEDTAVYYCASVGPRTEYSGYRYYYWGQGTQVTVSS | high polyreactivity |
| QVHLVESGGGLVLAGGSLRLSFAASGSTFDSYAMRCYRQQPGKQREFVAVINSGGSTNYADSVNGRFTISRDYSKNTVYLQMNSLKPEDTAVYYCAAEERYRWHYGGWGYWYDYWGQGTQVTVSS | low polyreactivity |
| QVQLVESVGGLVQAGGRLRLSCAASGLIFDDYSMGCYRQAPGKEREFVSAISWSDGTTYYADSVKGRFTISRDNAKNTVYLQMNSLKPEDTAVYYCAARLARAGYWRRNYYYWGQGTQVTVSS | high polyreactivity |
| QVQLVESGGGLVQAGCSLRLSCAASGGTFSLNAMGCYRQAPGKERELVAAITWTGDRTYYADSVKGRFTISRDNAKNTVYLQMNSLKPEDTAVYYCAAVGGYYPGDYWGQGTQVTVSS | low polyreactivity |
| QVQLVESGGGLVQAGGSLRLSCAASGSIIPYYAMGWYRQAPGKERELVAAISNSGGRTYYADSVKGRFTISRDNAKNTVYLQMNSLKPEDTAVYYCNAVPFYSKYDYWGQGTQVTVSS | high polyreactivity |
| QVQLVESGGGLVQAGGSLRLSCAASGFISDVYAMGWYRQAPGKERELVAVITWRGSTYYADSVKGRFTISRDNAKNTVYLQMNSLKPEDTAFYYCAAESQGDWAFDYWGQGTQVTVSS | low polyreactivity |
| QDQLVESRGGLVQAGGSLRLSCAASGSTFVNNAMGWYRQAPGKERELVAAIRSSDGRTYYADSVKGRFTISRDNAKNTVYLQMNSLKPEDSAVYYCATAVGTKYRTRIFEFYYWGQGTQVTVSS | high polyreactivity |
| QVQIVESGGGLVQAGGSLRLSCAPSGSTFGSNAMGWYRQAPGKERELVAAIRWSGGSTYYADSVKGRFTISRDNAKNTVYLQMNSLKPEDTAVYYCNAVYGRQYRGYNYKYYYWGQGTQVTVSS | high polyreactivity |
| QVQLVESGGGLVQAGGSLRLSCAASGFTFVSYAMGWYRQAPGKERELVAVISKSGSRTSYAESVKGRFTISRDNAKNTVYLQMNSLKPEDTAVYYCAVFYTRIGPRYDYWGQGTQVTVSS | high polyreactivity |
| QVQLVESGGGLVQAGGSLRLSCAASGSIFVGNAMGWYRQAPGKERELVAAISSSGGSTYYADSVKGRFTISRDNAKNTVYLQMNSLKPEDTAVYYCAADTYSTSVYYYWGQGTQVTVSS | low polyreactivity |
| QVQLVESGGGLVQAGGSLRLSCAASGNTFNDYAMGWYRQAPGKERELVASISSGGSTYYADSVKGRFTISRDNAKNTVYLQMNSLKPEDTAVYYCAAEWHYIYAYDYWGQGTQVTVSS | low polyreactivity |
| QVQLVESGGGLVQAGGSLRLSCAASGNMFYRNGMGWYRQAPGKERQFVAAISRRGGSTYYADSVKGRFTISRDNAKNTVYLQMNSLKPEDTAVYYCATRYWPTNKGEYWGQGTQVTVSS | high polyreactivity |
| QVQLVESGGGLVQAGGSLRLSCAASGYTFKTNDMGRYRQAPGKEREFVAAIDSGGNTYYADSVKGRFTISRDNAKITVYLQMNSLIPEDTAVYYCGAYRDYQYDYWGQGTQVTVSS | low polyreactivity |
| QVQLVESGGGLVQAGGSLRLSCAASGRIFASYAMGWYRQAPGKERELVAAISLRGGSTYYADSVKGRFTISRDNAKNTVYLQMNSLKPEDTAVYYCAAYHPHGFDYYRYYYWGQGTQVTVSS | high polyreactivity |
| QVQLVESGGGLVQAGGSLRLSCAASGSIFDINAMGWYRQAPGKERELVAAISYGGGSTSYADSVKGRFTISRDNAKNTVYLQMNSLKPEDTAVYYCAAGYTQSPRDDSWGQGTQVTVSS | low polyreactivity |
| QVQLVESGGGLVQAGGSLRLSCAASGRTFGVNAMGWYRQAPGKEREFVAAITWSGGSTYYADSVKGRFTISRDNAKNTVYLQMISLKPEDTAVYYCAAVQWRYDGSFTGYGYWGQGTQVTVSS | low polyreactivity |
| QVQHVESVGGLVQAGGSLRLSCAASASIIYANTMGWYRQAPGKEREFVATITDSGAIKYYADSVKGRFTISRDNAKNTVYLQMNSLKPEDTAVYYCNADSIYSARGWLYGYWGQGTQVTVSS | low polyreactivity |
| QVQLVESGGGLVQAGGSLRLSCAASGSIFGSYTMGWYRQAPGKERELVAAINASGGRTYYADSVKGRFTISRDNAKNTVYLQMNSLKPEDTAVYYCNKATYYQTYDYWGQGTQVTVSS | high polyreactivity |
| QVQLVESGGGLVQAGGSLRLSCAASGFTFSYYAMGWYRQATGKETELVAGIDYSGGSTYYADSVKGRFTISRDNAKNTVYLQMNCLKPEDTAVYYCNAVYARIYYYSHGYDYWGQGTQVTVSS | high polyreactivity |
| QVQLVESGGGLVQAGGSLRLSCAASGSTFAPYAMGWYRQAPGTERELVAALTTGGSTNYADYVKGRFTISRDNATNTVYLQMNSLKPEDTAVYYCNAEYGGGVDGTYKYYSEYDYWGQGTQVTVSS | low polyreactivity |
| QVQLVESGGGLVQAGGSLRLSCAASGITFFENAMGWYRQAPGKERELVAAISYSGGNTYADSVKGRFTISRDNAKNTVYLQMNSLKPEDTAVYYCNADYAGWGEYDYWGQGTQVTVSS | low polyreactivity |
| QVQLVESGGGLVQAGGSLRLSCASSGSTIRSYAMGWYRQAPGKERELVAVISSGDSTYYADSVKGRFTISRDNAKNTVYLQMNSLKPDDTAVYYCAADSYVLGRWYGYWGQGTQVTVSS | low polyreactivity |

| Sequence | polyreactivity (PSR sort gate) |
| --- | --- |
| QVQLVESGGGLVQAGGSLRLSCAASGLIFRRYAMGWYRQAPGKERELVAAITSSGGSTYYADSVKGRFTISRDNAKNTVYLQMNSLKPEDTAVYYCNAYYTGRSAPDSWGQGTQVTVSS | high polyreactivity |
| QVQLVESGGGLVQEGGSLGLSCAASGFIFVRYAMGWYRQAPGKERELVATITRGGGTYYADSVKARFTISRDNAKNTVYLQMKRLKPVDTAVYYCNKRGYSRYTGFGLDSWGQGTQVTVSS | high polyreactivity |
| HDQLVESAAGLVQAGGSLRLSCAASVLTFYQNALGWYRQAAGKEMEFVAAISRRGGSTYYADSVKGRFTISRDNAKNTVYLQMNSLKPEDTAVYYCAADYKRKSDGDYWGQGTQVTVSS | high polyreactivity |
| QVQIVESGGGLVQAGGSLRLSCAASGRIFYAYAMGWYRQAPGKERELVAAISSGGSTKYADSVKGRFTISRDNAKNTVYLQMNSLKPEDTAVYYCNADATALSFGTLFDYWGQGTQVTVSS | low polyreactivity |
| QVQLVESGGGLVQAGGSLRLSCDASGFTFVYYAMGCYRQAPGKERELVAAISGRGGSTYYADSVKGRFTISRDNAKNTVYLQMNSLKPEDTAVYYCATTYSWYYVPYKTHIYYYWGQGTQVTVSS | low polyreactivity |
| QVQLVESGGGLVQAGGSLRLSCAASGIIFSANAMGWYRQAPGKERELVAAISRDGSTYYADSVKGRFTISRDNAKNTVYLQMNSLKPEDTAVYYCAVDPIYYWRPGYDYWGQGTQVTVSS | low polyreactivity |
| QVQLVESGGGLVQAGGSLRLSCAASGYTFGFYTRGWYRQAPGKERELVAGISWSGGSTYYADSVKGRFTISRDNAKNTVYLQMNSLKPEDTAVYYCATRWRGRYDYWGQGTQVTVSS | high polyreactivity |
| QVQLVESGGGLVQAGGSLRLSCAASGSTFDPNAKGWYRQEPGKERELVAAISKSGGRTYYADSVKGRFTISRDNAKNTVYLQMNSLKPEDTAVYYCNARFGSRYNFFGLRYNYWGLGTQVTVSS | high polyreactivity |
| QVQLVESGGGLVQAGGSLRLICDASGRTFGPYVMRLYRQAPGKERELVASISSADSRYYADSVKGRFTISRDNAKNTVYLQMNSLKPEDTAVYYCAAPSVGYYDPTDFDYWGQGTQVTVSS | low polyreactivity |
| QVQLVESGGGLVQAGGSLRLSCAASGFIIVIYAMGWYIQAPGKERELVAAIRWRGGGTYYADSVKGRFTISRDNAKNTVYLQMNSLKPEDTAVYYCNADGWTYREEYWWRMDYWGLGTQVTVSS | low polyreactivity |
| QVQLVESGGGLVQAGGSLRLSCAASGNTLTYNVMGWYRQAPGKERELVAAISGRGGRTYYADSVKGRFTISRDNAKNTVYLQMNCLKPEDTAVYYCAAKSRNGESGGFDYWGQATQVTVSS | high polyreactivity |
| QVQLQESGGSLVQAGGSLRLSCAASGNILVLPHGLVSPGAERELVATITGGSITYYADSVKGRFTISRDNAKNTVYLQMNSLKPGDTDVYYCAVINIYHRPHPYWGQGTLVTVSS | high polyreactivity |
| QVQLVESGGGLVQAGGSLRLSCAASGYMGWYRQAPGKERELVATISGSGGSPYYADSVKGRFSISRDNAKNTVYLQMNSLKPEDTARYYCTTEIWGVNRSGYDYWGQGTQVTVSS | low polyreactivity |
| QVQLVESGGGLVQAGGSLRLSCAASGRTFVQNAMGWYRQAPGKERELVAAITWSTSGTYYADSVKGRFTISRDNAKNTVYLQMNSLKPEDTAVYYCAKYLAAYTGGGGYWGQGTQVTVSS | low polyreactivity |
| QVKLEESGGGLLQAGGSLRLSCAASGRIIGDYAMGSYRQAPGKERELVAANDRGGSTHYADSVKGRYTISRDNAKNTFYFQMNSLKPEDTAVYYCNLDVWANIKSRCIFAGWYDYWGQGTQVTVSS | low polyreactivity |
| QVQLVESGGGLVQAGGSLRLSCAASGRTLRYYAMGWYRQAPGKERELVAAITSSDRTYYADSVKGRFTISRDNAKNTVYLQMNSLKPEVTAVYYCAAYRATQFGYYYWGQGTQVTVSS | high polyreactivity |
| QVQLVESRGGIVQAGGSLRLSCAASGRIFNNYAMGCYRQAPGKERELDAAISGGGSTNYADSVKGRFTISRDNETNTVYLQMNSLKPEDTAVYYSATGYLKASRDLYETVPYDYWGQGTQVTVSS | low polyreactivity |
| QVQLVESGGGLVQAGGSLRLSCAASGSTFISNTMGWYRQAPGKERELVAAITRTGGRTYYADSVKGRFTISRDNAKNTVYLQMNSLKPEDTAVYYCARYGGYWSLKYDYWGQGTQVTVSS | high polyreactivity |
| QVQPVESGAGLVQAGGSLRLSCAASGSIFWSYAMGLYRQAPGKERELVAAITTSDGSTYYADSVKWRFTISRDNAKNTVYLQMNSLKPEDTAVYYCAADTYYVSYGYYYWGQGTQVTVSS | low polyreactivity |
| QVQLVESGGGLVQAGGSLRLSCAASGSIFRAYAMGWDRQAPGKERELVATISGSGGSRSYADSVKGRFTISRDNAKNTVDLQMNSLKPEDTAVYYCARDRYYKYTSYDYWGQGTQVTVSA | low polyreactivity |
| QVQLVESGGRLLQAGGSLRLSCAASGYTIDPYDMGWYRQAPGKERELVASISWSGGDTYYADSVKGRFSISRDNAKNTVYLQMNRLKPEDPAVYYCAADPGYAANRTEWRDFDYWGQGTQVTVSS | low polyreactivity |
